Reference: patent publication US20100095387A1, “METHODS AND REAGENTS FOR SCREENING NEW DRUGS AND FOR TREATING ION PUMP ASSOCIATED DISORDERS AND DISEASES” (priority 2005, published 2010)
Entries after “also recorded” stand apart in the source; their conditions may differ.

How the values were obtained:
[1] = system: cultured cortical neurons; test: Firing properties of cultured cortical neurons in normal external solution; assay type: cell-based, mouse; conditions: co-incubation with C-Ag15
[2] = system: layer V neurons in acute cortical slices; test: Whole cell current clamp of layer V neurons in acute cortical slices; assay type: cell-based, mouse
α3Na+/K+-ATPase [3] = molecular target: T1, α3Na+/K+-ATPase (Mus musculus, UniProt Q6PIC6); test: Whole cell current clamp of cultured cortical neurons, channel blockers present; assay type: cell-based
[4] = molecular target: T2, α3 subunit of the Na+/K+-ATPase (Mus musculus, UniProt Q6PIC6); test: Chemical cross-linking of agrin fragments to cortical neurons, immunoprecipitation and immunoblot; assay type: binding
T2 construct: a 110 kDa band characteristic of the native α3Na+/K+-ATPase; endogenous in cells; host or cells: primary mouse cortical neurons, 10-16 days in culture
Experimental: Membrane impermeant chemical cross-linking agents BS^3 and DMA were used to stabilize the bond between agrin and its binding sites on cell surface membranes. Cultured neurons were washed briefly in PBS containing 10 mM EDTA followed by preincubation with one or more agrin fragment in PBS^2+ for 30 minutes at room temperature and then cooled on ice prior to addition of a 10× solution of cross-linking agent to a final concentration of 0.1 mM. The cross-linking reaction was allowed to proceed for 30 minutes after which any unreacted cross-linker was quenched and removed by washing with ice cold PBS^2+ containing 50 mM ethanolamine. For immunoblot analysis, cells were scraped into ice-cold TI buffer (20 mM Tris, pH 7.4; 10 mM EDTA; protease inhibitors (Sigma, P8340)) then Dounce homogenized and membrane fraction recovered by centrifugation. For the immunoprecipitation studies, cells were scraped and homogenized in TI buffer containing 150 mM NaCl and 0.5% Triton X-100. Cell extracts were cleared by centrifugation and aliquots of the detergent soluble fraction incubated with the appropriate antibody at 4° C. overnight. Antigen-antibody complexes were precipitated with either protein A or protein G and resuspended in SDS-PAGE sample buffer for immunoblot analysis.
Ligand induced phosphorylation is a common first step in membrane receptor activation and inhibition of tyrosine kinase activity blocks agrin signalling in central nervous system neurons. To determine if agrin induced phosphorylation of the putative agrin receptor, membranes from neurons cross-linked to C-Ag208 or C-Ag15, alone or in combination, were dissolved, in a detergent-containing buffer and aliquots immunoprecipitated with RAg1 or the phosphotyrosine antibody mAb4G10 (Upstate). Immunoprecipitated proteins were analyzed by immunoblotting with a monoclonal antibody (9E10.2, Invitrogen) against the COON-terminal myc tag on the agrin fragments.
To confirm the results of the mass spectrometry the ability of different α-subunit antibodies to recognize the putative agrin-Na^+/K^+-ATPase complex was tested. […]

[5] = molecular target: rat α3 subunit of the Na+/K+-ATPase (Rattus norvegicus, UniProt P06687); test: Na+ imaging of non-neuronal cells transfected with pRcα3; assay type: cell-based
cardiac myocytes = test: Ca2+ (Fura-2) and Na+ imaging of cultured cardiac myocytes; conditions: 10 fold excess of C-Ag15
hippocampal neurons = test: Fos expression in hippocampal neurons; assay type: cell-based, mouse; conditions: 1 nM C-Ag15 with 50 pM C-Ag95z8
Experimental: Mouse cortical cultures were prepared from newborn or 1-d-old ICR strain mice (Harlan) as described previously (Hilgenberg et al., 1999). For the first 24 h after plating, cells were maintained in neural basal medium (NBM) plus B27 supplements (Invitrogen), and in nonneuronal cell-conditioned NBM (cNBM) plus B27 thereafter, at 37° C. in humidified 5% CO2 atmosphere. To further reduce proliferation of nonneuronal cells, cultures on glass coverslips used for histology were treated with 5 μM 5-fluoro-2-deoxyuridine (Sigma-Aldrich) 3-4 d after plating. Hippocampal and cerebellar cultures were prepared in a similar manner. Experiments were performed on 10-14-d-old cultures. Agrin-deficient neuron cultures were prepared from cortices of embryonic d 18-19 fetuses resulting from matings between mice heterozygous for a mutation in the agrin gene (Gautam et al., 1996). Cultures were prepared and genotyped as described previously (Li et al., 1999), and were maintained as above.
Fos expression in cortical cultures was measured by in situ enzyme-linked immunoassay (Hilgenberg et al., 1999). In brief, 11-14-d-old neuronal cultures were treated for 10 min with agrin or other agent diluted in NBM or PBS, then washed in cNBM and returned to the incubator for 2 h. […] The level of Fos expression was determined by monitoring conversion of p-nitrophenyl phosphate to a soluble yellow reaction product at 405 nm. […]

chick myotubes = test: AChR clustering assay; assay type: cell-based; conditions: 1 nM C-Ag15 with 50 pM C-Ag95z8 overnight
α3Na+/K+-ATPase [6] = molecular target: T1, α3Na+/K+-ATPase; test: Na+ imaging (SBFI-AM) of cultured cortical cells; assay type: cell-based

B1: C-Ag15: 15-kD COOH-terminal fragment of agrin created by deleting 37 amino acids from the NH2 terminus of C-Ag20, SEQ. ID NO. 3 (protein)
chain: MDPWIGKAAERADYMALAIVDGHLQLSYDLASQPVVLRSTVKVNTNRWLRVRAHREHREGSLQVGNEAPVTSSSPLGATQLDTDGALWLGGLQKLPVGQPLPKAYGTGFVGCLRNVVGHRQLHLLEDAVTKPELRPCPTLNSKLGPEQKLISEEDLNSAVDHHHHHH
modifications: Synthetically produced sequence
effect on depolarization and action potential increase induced by C-Ag20 isoforms [1]: blocked
time to repolarization after addition ([2]; in kainic acid): ≤ 10 min
membrane potential ([2]; kainic acid 0.5 μM + C-Ag15): −66.3±1.8 mV
action potential frequency ([2]; kainic acid plus C-Ag15): 0.01±0.005 Hz
effect on response to C-Ag200 ([2]; slices): blocked
spontaneous action potentials ([2]; two spontaneously active neurons): reversibly inhibited
change in membrane potential (α3Na+/K+-ATPase [3]): −1.0±0.4 mV
effect on depolarization induced by active agrin fragments (α3Na+/K+-ATPase [3]): effective in blocking depolarization
effect on ouabain induced membrane depolarization (α3Na+/K+-ATPase [3]): blocked
effect on C-Ag208 binding and phosphorylation ([4]; cross-linked in combination with C-Ag208): blocking both binding and phosphorylation
tyrosine phosphorylation of the cross-linked complex ([4]; immunoprecipitation with phosphotyrosine antibody mAb4G10): did not induce phosphorylation
antagonism of active agrin fragments [5]: effective antagonist
intracellular Na+ in cells expressing the α3 subunit [5]: unaffected
antagonism of C-Ag208 response (cardiac myocytes): effective agrin antagonist; also recorded: effectively blocks
effect on C-Ag95z8-induced Fos expression (hippocampal neurons): completely inhibited
effect on AChR clustering activity of C-Ag95z8 (chick myotubes): no effect
effect on Na+ increase induced by active agrin fragments (α3Na+/K+-ATPase [6]): blocked
effect on ouabain-induced increase in neuronal Na+ (α3Na+/K+-ATPase [6]): blocked; also recorded: significantly reduced
neuronal intracellular Na+ (α3Na+/K+-ATPase [6]): no significant effect
